In patent US20210388087A1 (Chugai, published 2021):
Residue numbers refer to the chain shown, from its start. One block for each binder: values may come before it.

Target: T1, CD3 epsilon homodimer protein (UniProt P07766 23-126)
T1 construct: also called CD3 (CD3 epsilon)
Assay: SPR, antibody over immobilised CD3e homodimer;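 further: SPR at 25 °C with CD3 epsilon homodimer amine-coupled to a CM4 sensor chip and antibody flowed over as analyte in HBS-EP+ running buffer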
Procedure: An appropriate amount of CD3 epsilon homodimer protein was immobilized onto Sensor chip CM4 (GE Healthcare Japan Corp.) by the amine coupling method. Then, the antibody having an appropriate concentration was injected thereto as an analyte and allowed to interact with the CD3 epsilon homodimer protein on the sensor chip. Then, the sensor chip was regenerated by the injection of 10 mmol/L glycine-HCl (pH 1.5). The assay was conducted at 25 degrees C., and HBS-EP+(GE Healthcare Japan Corp.) was used as a running buffer. […] Each parameter was calculated using Biacore T200 Evaluation Software (GE Healthcare Japan Corp.).

T1 sequence (P07766 23-126): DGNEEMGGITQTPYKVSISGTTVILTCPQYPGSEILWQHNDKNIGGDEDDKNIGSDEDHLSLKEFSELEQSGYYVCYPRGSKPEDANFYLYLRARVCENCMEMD

KD ratio to GLS3000: 0.8
B2: CE115HA000/GLS3000 S27aG (antibody, IgG1, name in Kabat numbering, V domains shown)
VH: QVQLVESGGGVVQPGRSLRLSCAASGFTFSNAWMHWVRQAPGKGLEWVAQIKAKSNNYATYYAESVKGRFTISRDDSKNSLYLQMNSLKTEDTAVYYCRYVHYGAYYGVDAWGQGTTVTVSS
VL: DIVMTQSPLSLPVTPGEPASISCRSSQGLVHSNRNTYLHWYQQKPGQAPRLLIYKVSNRFSGVPDRFSGSGSGTDFTLKISRVEAEDVGVYYCGQGTQVPYTFGQGTKLEIK
notes: one-arm IgG1

KD ratio to GLS3000: 1.05
B9: CE115HA000/GLS3000 S27eI (antibody, IgG1, name in Kabat numbering, V domains shown)
VH: B2 VH
VL: B2 VL with G28S, S32I
notes: one-arm IgG1

KD ratio to GLS3000: 1.32
B10: CE115HA000/GLS3000 S27eK (antibody, IgG1, name in Kabat numbering, V domains shown)
VH: B2 VH
VL: B2 VL with G28S, S32K
notes: one-arm IgG1

KD ratio to GLS3000: 0.67
B11: CE115HA000/GLS3000 S26P (antibody, IgG1, name in Kabat numbering, V domains shown)
VH: B2 VH
VL: B2 VL with S26P, G28S
notes: one-arm IgG1

KD ratio to GLS3000: 1.03
B13: CE115HA000/GLS3000 S27eG (antibody, IgG1, name in Kabat numbering, V domains shown)
VH: B2 VH
VL: B2 VL with G28S, S32G
notes: one-arm IgG1

KD ratio to GLS3000: 1.04
B16: CE115HA000/GLS3000 S27eE (antibody, IgG1, name in Kabat numbering, V domains shown)
VH: B2 VH
VL: B2 VL with G28S, S32E
notes: one-arm IgG1

KD ratio to GLS3000: 0.75
B18: CE115HA000/GLS3000 S25T (antibody, IgG1, name in Kabat numbering, V domains shown)
VH: B2 VH
VL: B2 VL with S25T, G28S
notes: one-arm IgG1

KD ratio to GLS3000: 0.93
B21: CE115HA000/GLS3000 S27aY (antibody, IgG1, name in Kabat numbering, V domains shown)
VH: B2 VH
VL: B2 VL with G28Y
notes: one-arm IgG1

KD ratio to GLS3000: 1.09
B23: CE115HA000/GLS3000 S27eH (antibody, IgG1, name in Kabat numbering, V domains shown)
VH: B2 VH
VL: B2 VL with G28S, S32H
notes: one-arm IgG1

KD ratio to GLS3000: 1.06
B25: CE115HA000/GLS3000 S26D (antibody, IgG1, name in Kabat numbering, V domains shown)
VH: B2 VH
VL: B2 VL with S26D, G28S
notes: one-arm IgG1

KD ratio to GLS3000: 0.74
B28: CE115HA000/GLS3000 S25V (antibody, IgG1, name in Kabat numbering, V domains shown)
VH: B2 VH
VL: B2 VL with S25V, G28S
notes: one-arm IgG1

KD ratio to GLS3000: 0.94
B32: CE115HA000/GLS3000 S27aE (antibody, IgG1, name in Kabat numbering, V domains shown)
VH: B2 VH
VL: B2 VL with G28E
notes: one-arm IgG1

KD ratio to GLS3000: 0.94
B34: CE115HA000/GLS3000 S27aD (antibody, IgG1, name in Kabat numbering, V domains shown)
VH: B2 VH
VL: B2 VL with G28D
notes: one-arm IgG1

KD ratio to GLS3000: 1.01
B35: CE115HA000/GLS3000 S27aP (antibody, IgG1, name in Kabat numbering, V domains shown)
VH: B2 VH
VL: B2 VL with G28P
notes: one-arm IgG1

KD ratio to GLS3000: 0.98
B36: CE115HA000/GLS3000 S27aN (antibody, IgG1, name in Kabat numbering, V domains shown)
VH: B2 VH
VL: B2 VL with G28N
notes: one-arm IgG1

KD ratio to GLS3000: 1.16
B38: CE115HA000/GLS3000 S27eF (antibody, IgG1, name in Kabat numbering, V domains shown)
VH: B2 VH
VL: B2 VL with G28S, S32F
notes: one-arm IgG1

KD ratio to GLS3000: 1.23
B42: CE115HA000/GLS3000 S27eD (antibody, IgG1, name in Kabat numbering, V domains shown)
VH: B2 VH
VL: B2 VL with G28S, S32D
notes: one-arm IgG1

KD ratio to GLS3000: 0.87
B45: CE115HA000/GLS3000 S27aI (antibody, IgG1, name in Kabat numbering, V domains shown)
VH: B2 VH
VL: B2 VL with G28I
notes: one-arm IgG1

KD ratio to GLS3000: 0.9
B46: CE115HA000/GLS3000 S26E (antibody, IgG1, name in Kabat numbering, V domains shown)
VH: B2 VH
VL: B2 VL with S26E, G28S
notes: one-arm IgG1

The remaining lines, values behind:

B1: CE115HA000/GLS3000 R24Y (antibody, IgG1, name in Kabat numbering, V domains shown)
VH: B2 VH
VL: B2 VL with R24Y, G28S
notes: one-arm IgG1
KD ratio to GLS3000: 0.94

B3: CE115HA000/GLS3000 R54P (antibody, IgG1, name in Kabat numbering, V domains shown)
VH: B2 VH
VL: B2 VL with G28S, R59P
notes: one-arm IgG1
KD ratio to GLS3000: 1.05

B4: CE115HA000/GLS3000 S25E (antibody, IgG1, name in Kabat numbering, V domains shown)
VH: B2 VH
VL: B2 VL with S25E, G28S
notes: one-arm IgG1
KD ratio to GLS3000: 8.54

B5: CE115HA000/GLS3000 R29L (antibody, IgG1, name in Kabat numbering, V domains shown)
VH: B2 VH
VL: B2 VL with G28S, R34L
notes: one-arm IgG1
KD ratio to GLS3000: 0.9

B6: CE115HA000/GLS3000 R54Q (antibody, IgG1, name in Kabat numbering, V domains shown)
VH: B2 VH
VL: B2 VL with G28S, R59Q
notes: one-arm IgG1
KD ratio to GLS3000: 1.04

B7: CE115HA000/GLS3000 R29I (antibody, IgG1, name in Kabat numbering, V domains shown)
VH: B2 VH
VL: B2 VL with G28S, R34I
notes: one-arm IgG1
KD ratio to GLS3000: 1.6

B8: CE115HA000/GLS3000 S25L (antibody, IgG1, name in Kabat numbering, V domains shown)
VH: B2 VH
VL: B2 VL with S25L, G28S
notes: one-arm IgG1
KD ratio to GLS3000: 4.93

B12: CE115HA000/GLS3000 R29G (antibody, IgG1, name in Kabat numbering, V domains shown)
VH: B2 VH
VL: B2 VL with G28S, R34G
notes: one-arm IgG1
KD ratio to GLS3000: 0.62

B14: CE115HA000/GLS3000 R54E (antibody, IgG1, name in Kabat numbering, V domains shown)
VH: B2 VH
VL: B2 VL with G28S, R59E
notes: one-arm IgG1
KD ratio to GLS3000: 0.84

B15: CE115HA000/GLS3000 R77S (antibody, IgG1, name in Kabat numbering, V domains shown)
VH: B2 VH
VL: B2 VL with G28S, R82S
notes: one-arm IgG1
KD ratio to GLS3000: 0.94

B17: CE115HA000/GLS3000 R29Y (antibody, IgG1, name in Kabat numbering, V domains shown)
VH: B2 VH
VL: B2 VL with G28S, R34Y
notes: one-arm IgG1
KD ratio to GLS3000: 1.08

B19: CE115HA000/GLS3000 R54W (antibody, IgG1, name in Kabat numbering, V domains shown)
VH: B2 VH
VL: B2 VL with G28S, R59W
notes: one-arm IgG1
KD ratio to GLS3000: 0.65

B20: CE115HA000/GLS3000 S25D (antibody, IgG1, name in Kabat numbering, V domains shown)
VH: B2 VH
VL: B2 VL with S25D, G28S
notes: one-arm IgG1
KD ratio to GLS3000: 8.86

B22: CE115HA000/GLS3000 S25P (antibody, IgG1, name in Kabat numbering, V domains shown)
VH: B2 VH
VL: B2 VL with S25P, G28S
notes: one-arm IgG1
KD ratio to GLS3000: 0.79

B24: CE115HA000/GLS3000 R54A (antibody, IgG1, name in Kabat numbering, V domains shown)
VH: B2 VH
VL: B2 VL with G28S, R59A
notes: one-arm IgG1
KD ratio to GLS3000: 0.85

B26: CE115HA000/GLS3000 R29D (antibody, IgG1, name in Kabat numbering, V domains shown)
VH: B2 VH
VL: B2 VL with G28S, R34D
notes: one-arm IgG1
KD ratio to GLS3000: 1.58

B27: CE115HA000/GLS3000 R54S (antibody, IgG1, name in Kabat numbering, V domains shown)
VH: B2 VH
VL: B2 VL with G28S, R59S
notes: one-arm IgG1
KD ratio to GLS3000: 0.78

B29: CE115HA000/GLS3000 R54T (antibody, IgG1, name in Kabat numbering, V domains shown)
VH: B2 VH
VL: B2 VL with G28S, R59T
notes: one-arm IgG1
KD ratio to GLS3000: 0.89

B30: CE115HA000/GLS3000 R29S (antibody, IgG1, name in Kabat numbering, V domains shown)
VH: B2 VH
VL: B2 VL with G28S, R34S
notes: one-arm IgG1
KD ratio to GLS3000: 1.05

B31: CE115HA000/GLS3000 S25I (antibody, IgG1, name in Kabat numbering, V domains shown)
VH: B2 VH
VL: B2 VL with S25I, G28S
notes: one-arm IgG1
KD ratio to GLS3000: 0.67

B33: CE115HA000/GLS3000 R29T (antibody, IgG1, name in Kabat numbering, V domains shown)
VH: B2 VH
VL: B2 VL with G28S, R34T
notes: one-arm IgG1
KD ratio to GLS3000: 1.02

B37: CE115HA000/GLS3000 R29P (antibody, IgG1, name in Kabat numbering, V domains shown)
VH: B2 VH
VL: B2 VL with G28S, R34P
notes: one-arm IgG1
KD ratio to GLS3000: 14

B39: CE115HA000/GLS3000 R29V (antibody, IgG1, name in Kabat numbering, V domains shown)
VH: B2 VH
VL: B2 VL with G28S, R34V
notes: one-arm IgG1
KD ratio to GLS3000: 2.25

B40: CE115HA000/GLS3000 R54D (antibody, IgG1, name in Kabat numbering, V domains shown)
VH: B2 VH
VL: B2 VL with G28S, R59D
notes: one-arm IgG1
KD ratio to GLS3000: 1.8

B41: CE115HA000/GLS3000 S25M (antibody, IgG1, name in Kabat numbering, V domains shown)
VH: B2 VH
VL: B2 VL with S25M, G28S
notes: one-arm IgG1
KD ratio to GLS3000: 1.6

B43: CE115HA000/GLS3000 R29A (antibody, IgG1, name in Kabat numbering, V domains shown)
VH: B2 VH
VL: B2 VL with G28S, R34A
notes: one-arm IgG1
KD ratio to GLS3000: 1.15

B44: CE115HA000/GLS3000 S25A (antibody, IgG1, name in Kabat numbering, V domains shown)
VH: B2 VH
VL: B2 VL with S25A, G28S
notes: one-arm IgG1
KD ratio to GLS3000: 0.73

B47: CE115HA000/GLS3000 R54G (antibody, IgG1, name in Kabat numbering, V domains shown)
VH: B2 VH
VL: B2 VL with G28S, R59G
notes: one-arm IgG1
KD ratio to GLS3000: 0.88
